Results reported in publication PMC6624373.
Several values for one entry are separate records, joined by “and”; a condition that tells them apart may be missing. Equal values may be shown once.

Legend:
Settings in all cases: remark: other sources report otherwise
[1] = biological target: T1, lamin A (human, mature form, without tags, wild type) (human), P02545; assay: AUC; sedimentation velocity, 0.3 mg/mL lamin A in Tris or NaPi buffer, 45,000 rpm, 20 °C, interference optics, c(s) model
T1 chain: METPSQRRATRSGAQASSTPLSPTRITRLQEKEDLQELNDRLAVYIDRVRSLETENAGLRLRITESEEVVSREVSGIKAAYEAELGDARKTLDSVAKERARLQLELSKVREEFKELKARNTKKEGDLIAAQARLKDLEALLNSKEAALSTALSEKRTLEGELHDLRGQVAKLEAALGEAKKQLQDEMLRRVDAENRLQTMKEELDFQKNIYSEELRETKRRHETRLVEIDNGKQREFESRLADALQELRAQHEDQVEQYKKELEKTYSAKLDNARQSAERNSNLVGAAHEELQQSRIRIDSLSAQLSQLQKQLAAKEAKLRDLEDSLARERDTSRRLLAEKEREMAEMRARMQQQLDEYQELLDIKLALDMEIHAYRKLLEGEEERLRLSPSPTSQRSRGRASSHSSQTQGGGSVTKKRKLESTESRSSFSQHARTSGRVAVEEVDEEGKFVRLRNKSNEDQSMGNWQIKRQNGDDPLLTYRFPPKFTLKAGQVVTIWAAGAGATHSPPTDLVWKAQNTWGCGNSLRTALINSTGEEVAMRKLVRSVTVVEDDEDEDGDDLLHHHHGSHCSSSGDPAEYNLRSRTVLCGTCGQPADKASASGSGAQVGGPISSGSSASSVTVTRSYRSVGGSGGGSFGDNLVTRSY

[2] = biological target: T1, lamin A (human, mature form, without …); assay: as above
[3] = biological target: T2, 6xHis-tagged lamin A (human, mature form) (human), P02545; assay: pull-down; Ni-NTA pull-down of a 1:1 mix of un-tagged and 6xHis-tagged lamin A monomers after gel-extraction and refolding
T2 chain: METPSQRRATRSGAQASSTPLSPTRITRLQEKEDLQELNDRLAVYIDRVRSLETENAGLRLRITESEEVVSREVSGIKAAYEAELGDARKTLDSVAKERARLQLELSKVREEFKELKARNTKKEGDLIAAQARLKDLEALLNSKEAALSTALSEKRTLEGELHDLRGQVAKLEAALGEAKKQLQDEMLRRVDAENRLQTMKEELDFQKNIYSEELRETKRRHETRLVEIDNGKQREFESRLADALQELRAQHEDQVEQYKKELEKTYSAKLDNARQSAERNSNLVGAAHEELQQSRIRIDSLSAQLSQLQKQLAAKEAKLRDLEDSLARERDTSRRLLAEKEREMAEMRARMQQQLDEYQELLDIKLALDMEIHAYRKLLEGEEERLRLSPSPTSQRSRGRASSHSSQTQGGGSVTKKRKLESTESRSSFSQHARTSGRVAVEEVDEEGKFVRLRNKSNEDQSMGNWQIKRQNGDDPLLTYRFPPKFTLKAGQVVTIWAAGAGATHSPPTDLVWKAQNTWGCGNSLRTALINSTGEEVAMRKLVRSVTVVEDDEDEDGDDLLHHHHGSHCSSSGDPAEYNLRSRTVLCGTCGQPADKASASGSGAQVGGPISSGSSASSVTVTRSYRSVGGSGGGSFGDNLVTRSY

[4] = biological target: T1, lamin A (human, mature form, without …); assay: cross-linking; 0.4 mg/mL lamin A in NaPi buffer, EDC:S-NHS (1:4:8.8 by weight lamin A:EDC:S-NHS), 30 min, room temperature; product bands resolved by SDS-PAGE, gel-extracted and seen by rotary metal shadowing EM
[5] = biological target: T1, lamin A (human, mature form, without …); assay: rotary metal shadowing EM; un-cross-linked lamin A at 0.1 mg/mL in Tris buffer (25 mM Tris, 250 mM NaCl, pH 8.0) or NaPi buffer (100 mM NaPi, 250 mM NaCl, pH 8.0), 30% glycerol, sprayed on mica; dimers and head-to-tail tetramers

- stoichiometry N [1]: 4
- stoichiometry N [2]: 2
- percent of un-tagged lamin A retained on the beads [3]: 50%
- stoichiometry N [4]: 2 and 4
- dimers seen per head-to-tail tetramer (EM) (dimers per tetramer) [5]: 20 to 25
- stoichiometry N [5]: 2 and 4
B1: lamin A (human, mature form, without tags, wild type), P02545 1-646 (natural protein)
chain: METPSQRRATRSGAQASSTPLSPTRITRLQEKEDLQELNDRLAVYIDRVRSLETENAGLRLRITESEEVVSREVSGIKAAYEAELGDARKTLDSVAKERARLQLELSKVREEFKELKARNTKKEGDLIAAQARLKDLEALLNSKEAALSTALSEKRTLEGELHDLRGQVAKLEAALGEAKKQLQDEMLRRVDAENRLQTMKEELDFQKNIYSEELRETKRRHETRLVEIDNGKQREFESRLADALQELRAQHEDQVEQYKKELEKTYSAKLDNARQSAERNSNLVGAAHEELQQSRIRIDSLSAQLSQLQKQLAAKEAKLRDLEDSLARERDTSRRLLAEKEREMAEMRARMQQQLDEYQELLDIKLALDMEIHAYRKLLEGEEERLRLSPSPTSQRSRGRASSHSSQTQGGGSVTKKRKLESTESRSSFSQHARTSGRVAVEEVDEEGKFVRLRNKSNEDQSMGNWQIKRQNGDDPLLTYRFPPKFTLKAGQVVTIWAAGAGATHSPPTDLVWKAQNTWGCGNSLRTALINSTGEEVAMRKLVRSVTVVEDDEDEDGDDLLHHHHGSHCSSSGDPAEYNLRSRTVLCGTCGQPADKASASGSGAQVGGPISSGSSASSVTVTRSYRSVGGSGGGSFGDNLVTRSY
